This test deals with IE-3 fragment antigen-binding (Fab) region, recombinant, labelled. Kind of test: MST.

B1: mouse ZP2 N-terminal ZP-N1 domain (mZP2-N1), His-tagged (domain or fragment)
chain: VSLPQSENPAFPGTLICDKDEVRIEFSSRFDMEKWNPSVVDTLGSEILNCTYALDLERFVLKFPYETCTIKVVGGYQVNIRVGDTTTDVRYKDDMYHFFCPAIQ
In the case of B1, the fold higher affinity than MBP-mZP2(T103-Q138) was 30 fold.

These data come from article doi:10.1101/2025.03.03.641048.
